From publication PMC2853113
Read-outs that look alike come from different tables or passages of the source.

Assays:
[1] = target: T1, YvoA-E61C-L242C (Bacillus subtilis, UniProt O34817 1-243, E61C;L242C); assay: analytical gel filtration
T1 sequence: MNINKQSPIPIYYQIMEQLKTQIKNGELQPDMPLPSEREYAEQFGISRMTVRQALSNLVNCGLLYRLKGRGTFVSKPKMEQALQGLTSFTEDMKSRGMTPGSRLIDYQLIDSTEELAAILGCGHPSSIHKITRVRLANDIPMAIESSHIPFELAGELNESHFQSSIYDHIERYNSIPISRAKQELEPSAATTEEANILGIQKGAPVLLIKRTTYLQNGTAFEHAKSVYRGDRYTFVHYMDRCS

[2] = target: T2, YvoA wild-type (Bacillus subtilis, UniProt O34817 1-243); assay: ITC
T2 sequence: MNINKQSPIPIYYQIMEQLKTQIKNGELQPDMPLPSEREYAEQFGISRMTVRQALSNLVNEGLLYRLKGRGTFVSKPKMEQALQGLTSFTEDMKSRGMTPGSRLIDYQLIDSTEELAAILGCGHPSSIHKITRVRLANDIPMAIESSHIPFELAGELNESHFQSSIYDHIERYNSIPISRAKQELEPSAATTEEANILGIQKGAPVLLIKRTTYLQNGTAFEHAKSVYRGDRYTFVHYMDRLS

[3] = target: T2, YvoA wild-type; assay: ITC; remark: listed apart in the source
[4] = target: T3, YvoA-K24C-G97C (Bacillus subtilis, UniProt O34817 1-243, K24C;G97C); assay: analytical gel filtration
T3 sequence: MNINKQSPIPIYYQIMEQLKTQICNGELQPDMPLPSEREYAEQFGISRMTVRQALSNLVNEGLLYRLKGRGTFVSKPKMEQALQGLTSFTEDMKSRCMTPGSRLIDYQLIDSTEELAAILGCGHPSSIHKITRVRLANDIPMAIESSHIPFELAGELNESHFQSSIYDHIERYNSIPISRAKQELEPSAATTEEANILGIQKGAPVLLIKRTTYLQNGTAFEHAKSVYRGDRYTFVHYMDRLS

B1: YvoA operator dsDNA (18mer) (dsDNA)
DNA 1: ATTGGTATAGATCACTAG
DNA 2: CTAGTGATCTATACCAAT
With B1 the binding result [1] was “binds”, the Kd [2] was 2.9 nM and the Kd [3] was 131 nM. B1: binds [4].
